Results published in publication PMC2636891, “Two Highly Conserved Cysteine Residues in HPV16 L2 Form an Intramolecular Disulfide Bond and Are Critical for Infectivity in Human Keratinocytes” (PLoS ONE, 2009).
Changes are numbered by the printed parent chain. Names may count otherwise.

B1: HPV16 minor capsid protein L2, wild type (natural protein)
chain: MRHKRSAKRTKRASATQLYKTCKQAGTCPPDIIPKVEGKTIAEQILQYGSMGVFFGGLGIGTGSGTGGRTGYIPLGTRPPTATDTLAPVRPPLTVDPVGPSDPSIVSLVEETSFIDAGAPTSVPSIPPDVSGFSITTSTDTTPAILDINNTVTTVTTHNNPTFTDPSVLQPPTPAETGGHFTLSSSTISTHNYEEIPMDTFIVSTNPNTVTSSTPIPGSRPVARLGLYSRTTQQVKVVDPAFVTTPTKLITYDNPAYEGIDVDNTLYFSSNDNSINIAPDPDFLDIVALHRPALTSRRTGIRYSRIGNKQTLRTRSGKSIGAKVHYYYDLSTIDPAEEIELQTITPSTYTTTSHAASPTSINNGLYDIYADDFITDTSTTPVPSVPSTSLSGYIPANTTIPFGGAYNIPLVSGPDIPINITDQAPSLIPIVPGSPQYTIIADAGDFYLHPSYYMLRKRRKRLPYFFSDVSLAA
modifications: intramolecular disulfide bond C22-C28
notes: minor capsid protein L2 of human papillomavirus type 16, expressed from pXULL; AAD33258 is the entry used for the alignment and gi 4927726 the one searched in mass spectrometry; Assembled with L1 into virions; also called wild type L2; source: 293TT, transfected with pXULL (L1 and L2 expression plasmid), in virions purified by CsCl density gradient
B2: HPV16 L2 C22S (natural protein)
chain: B1 chain with C22S
notes: minor capsid protein L2 of human papillomavirus type 16 with C22S, expressed from a pXULL variant made by site directed mutagenesis; Assembled with L1 into virions; also called single C22S mutant; source: 293TT, transfected with mutant pXULL, in virions purified by CsCl density gradient
B3: HPV16 L2 C28S (natural protein)
chain: B1 chain with C28S
notes: minor capsid protein L2 of human papillomavirus type 16 with C28S, expressed from a pXULL variant made by site directed mutagenesis; Assembled with L1 into virions; also called single C28S mutant; source: 293TT, transfected with mutant pXULL, in virions purified by CsCl density gradient
B4: HPV16 L2 C22/28S (natural protein)
chain: B1 chain with C22S, C28S
notes: minor capsid protein L2 of human papillomavirus type 16 with C22S and C28S, expressed from a pXULL variant made by site directed mutagenesis; Assembled with L1 into virions; also called double mutant; source: 293TT, transfected with mutant pXULL, in virions purified by CsCl density gradient

target: T1, HPV16 major capsid protein L1 (human papillomavirus type 16, UniProt P03101 1-505, disulfide-linked to other L1 chains in the virions); assay: co-sedimentation; CsCl-purified virions; SDS-PAGE and Coomassie staining-based densitometry; data not shown; conditions: partners not purified
T1 construct: major capsid protein L1 of human papillomavirus type 16, expressed from the capsid expression plasmid pXULL; Assembled with L2 and the HPV16 genome into virions; source: 293TT, transfected with pXULL (L1 and L2 expression plasmid), in virions purified by CsCl density gradient
T1 sequence: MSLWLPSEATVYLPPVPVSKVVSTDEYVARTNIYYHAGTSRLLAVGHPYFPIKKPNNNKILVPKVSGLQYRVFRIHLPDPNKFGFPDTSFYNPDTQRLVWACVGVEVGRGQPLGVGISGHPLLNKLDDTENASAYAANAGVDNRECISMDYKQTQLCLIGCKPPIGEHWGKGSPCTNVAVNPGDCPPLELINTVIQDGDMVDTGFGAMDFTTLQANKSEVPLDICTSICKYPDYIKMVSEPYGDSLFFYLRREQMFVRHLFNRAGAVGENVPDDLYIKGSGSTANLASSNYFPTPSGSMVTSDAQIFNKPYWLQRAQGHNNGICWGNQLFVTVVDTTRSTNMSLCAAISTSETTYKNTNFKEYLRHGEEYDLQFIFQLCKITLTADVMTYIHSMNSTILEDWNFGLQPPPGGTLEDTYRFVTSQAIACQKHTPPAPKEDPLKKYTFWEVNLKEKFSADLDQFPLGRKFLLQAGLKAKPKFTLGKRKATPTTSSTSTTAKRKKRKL

Row | Binder | molecules L2 per virion [molecules L2 per virion]
1 | B1 | ~22
2 | B2 | ~22
3 | B3 | ~22
4 | B4 | ~22

Target: the molecule itself
Assay: non-reducing denaturing SDS-PAGE with immunoblot; purified virions reacted with 2 mM NEM for 1.5 h at room temperature, mixed with non-reducing SDS loading buffer (2% SDS), 7.5% gel, immunoblot for L1 and L2; shows only disulfide-linked species
Conditions: not given

Row | Binder | stoichiometry N
5 | B2 | 2
6 | B3 | 2
